This is an account of results in patent US20150017171A1 (CHINA SYNTHETIC RUBBER, published 2015).

Changes are numbered by the printed parent chain.

In assay [1] the target is T1, His-tagged human PLVAP51-292 (human, UniProt Q9BX97 51-292).
T1 construct: also called N-terminal portion of the extracellular domain; not shown: His tag and vector residues of pET-15b
T1 sequence: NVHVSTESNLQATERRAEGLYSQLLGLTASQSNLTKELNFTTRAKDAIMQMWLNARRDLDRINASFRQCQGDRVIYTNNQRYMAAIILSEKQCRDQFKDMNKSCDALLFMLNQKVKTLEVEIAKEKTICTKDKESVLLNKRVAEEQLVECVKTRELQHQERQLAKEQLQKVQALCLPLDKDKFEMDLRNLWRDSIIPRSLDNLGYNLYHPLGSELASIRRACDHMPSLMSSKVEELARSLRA
Kind of assay: immunoblot of total protein extract of E. coli expressing the His-tagged protein. From the text: (§1) Molecular weight protein standards are resolved in Lane M.
(In western blotting, separated proteins are transferred to a membrane and probed.)

In a further assay the target is T2, His-tagged human CEACAM6 (human, UniProt P40199 35-320, limits assumed).
T2 construct: also called human CEACAM6 protein unrelated to PLVAP (lane 4); not shown: His tag
T2 sequence (looked up): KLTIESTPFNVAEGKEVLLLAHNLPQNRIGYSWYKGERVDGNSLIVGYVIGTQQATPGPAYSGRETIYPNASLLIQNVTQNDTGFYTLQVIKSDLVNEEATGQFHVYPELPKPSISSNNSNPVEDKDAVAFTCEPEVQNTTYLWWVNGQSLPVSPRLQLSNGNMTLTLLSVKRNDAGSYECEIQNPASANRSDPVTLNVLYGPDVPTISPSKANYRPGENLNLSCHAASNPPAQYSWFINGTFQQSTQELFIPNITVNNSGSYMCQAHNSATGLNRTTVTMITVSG
The assay is described as above.
Excerpt: as §1

Assay [2] deals with T3, recombinant human PLVAP51-442 protein (extracellular domain, His tag removed by thrombin) (human, UniProt Q9BX97 51-442).
T3 construct: also called recombinant PLVAP protein; recombinant PLVAP
T3 sequence: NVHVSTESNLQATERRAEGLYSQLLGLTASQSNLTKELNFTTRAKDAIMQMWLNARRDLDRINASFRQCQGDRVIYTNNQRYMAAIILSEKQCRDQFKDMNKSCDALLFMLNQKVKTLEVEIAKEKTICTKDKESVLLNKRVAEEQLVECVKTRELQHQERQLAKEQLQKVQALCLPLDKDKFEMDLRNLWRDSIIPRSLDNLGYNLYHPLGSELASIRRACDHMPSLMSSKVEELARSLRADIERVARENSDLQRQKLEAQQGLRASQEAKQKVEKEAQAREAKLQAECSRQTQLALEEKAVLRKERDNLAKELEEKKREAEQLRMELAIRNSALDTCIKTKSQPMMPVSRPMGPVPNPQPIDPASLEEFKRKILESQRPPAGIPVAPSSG
Nature of the assay: competition ELISA on coated recombinant PLVAP; competitor biotinylated murine KFCC-GY4 at 0.3 µg/ml. Here is the method: (§2) The binding of chimeric KFCC-GY4 and KFCC-GY5 antibodies to recombinant PLVAP protein was assessed in a competition ELISA. Either a dilution series of chimeric or control antibody from 30 μg/ml to 0.014 μg/m (final concentration) was premixed with a constant concentration of biotinylated murine KFCC-GY4 (0.3 μg/ml, final concentration) or a dilution series of chimeric or control antibody from 10 μg/ml to 0.004 μg/m (final concentration) was premixed with a constant concentration of biotinylated murine KFCC-GY5 (0.1 μg/ml, final concentration) before incubating for 1 hour at room temperature on a Nunc Immuno MaxiSorp 96 well flat bottom microtitre plate (Fisher Catalogue No. DIS-971-030J) precoated with 1 μg/ml recombinant PLVAP protein diluted in PBS. The binding of the biotinylated mAb was determined by detection with streptavidin-HRP and TMB substrate.
(§3) Therefore, the correct variable region sequences for the parent murine monoclonal antibodies were identified and cloned.
(In an ELISA, binding on a coated surface is turned into a signal by an enzyme label.)

Assay [3] addresses T3, recombinant human PLVAP51-442 protein …. Kind of assay: competition ELISA on coated recombinant PLVAP; competitor biotinylated murine KFCC-GY4. Here is the method:
(§4) The binding of KFCC-GY4 and KFCC-GY5 human antibody variants to recombinant PLVAP was assessed in a competition ELISA. Either a dilution series of variant or control antibody from 30 μg/m to 0.014 μg/m (final concentration) was premixed with a constant concentration of biotinylated murine KFCC-GY4 (0.3 μg/ml, final concentration) or a dilution series of variant or control antibody from 10 μg/m to 0.004 μg/ml (final concentration) was premixed with a constant concentration of biotinylated murine KFCC-GY5 (0.1 μg/ml, final concentration) before incubating for 1 hour at room temperature on a Nunc Immuno MaxiSorp 96 well flat bottom microtitre plate (Fisher Catalogue No. DIS-971-030J) precoated with 1 μg/m recombinant “protein P” diluted in PBS. The binding of the biotinylated mAb was determined by detection with streptavidin-HRP and TMB substrate. After stopping the reaction with 3M HCl, absorbance was measured at 450 nm on a Dynex Technologies MRX TC II plate reader and the binding curves of the test antibodies compared against the mouse reference standard.
The five lead variants of IgG4-GY4 and murine KFCC-GY4 antibodies have very similar binding profiles (FIG. 48). All of the lead variants shown are within two-fold of the original murine monoclonal antibody.

Assay [4] shares this target. Nature of the assay: Biacore T-100. In general terms: In SPR one partner is held on a chip, and binding of the other changes the refractive index at the surface.
For assay [5] the target is unchanged. Nature of the assay: ANTQ300 quartz crystal microbalance.
Assay [6] has the same target. Kind of assay: competition ELISA on coated recombinant PLVAP; competitor biotinylated murine KFCC-GY5. As to the method: as §4
Similarly, the four lead variants of IgG4-GY5 and murine KFCC-GY5 antibodies have very similar binding profiles (FIG. 49). All of the lead variants shown are within two-fold of the original murine monoclonal antibody.

For assay [7] the target is unchanged. Kind of assay: competition ELISA on coated recombinant PLVAP; competitor biotinylated murine KFCC-GY5 at 0.1 µg/ml. As to the method:
as §2, §3

B1: KFCC-GY4 monoclonal antibody (murine, hybridoma ATCC PTA-9963) (antibody, mouse IgG1, V domains shown)
VH: EVQLQQSGAEFVRSGASVKLSCTASGFNIKDYYIHWVKQRPEQGLEWIGWIDPENGDIEYAPKFQGKATMTADTSSNTAYLQFSSLTSEDTAVYYCLYQEGSWGQGTTLTVSS
VL: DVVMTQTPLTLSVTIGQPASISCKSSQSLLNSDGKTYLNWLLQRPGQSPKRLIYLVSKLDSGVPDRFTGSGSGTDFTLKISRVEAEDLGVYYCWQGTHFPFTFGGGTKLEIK
notes: also called GY4 mAB; KFCC-GY4 mAb
As usually defined, the IC50 is the concentration that gives 50% inhibition. In general, Kd refers to the concentration at which binding is half-saturated. One may read the koff as the rate constant with which the complex falls apart. A word on the kon: it is the second-order rate constant of association. B1: the binding result in assay [1] was “no binding”. The binding result with His-tagged human CEACAM6 is recorded as “no binding”. Also, in assay [2], the IC50 amounted to 0.98 µg/mL. In assay [3], the IC50 is 1.82 µg/mL and the “IC50 (ratio compared to GY4 mAb)” value came out at 1. In assay [4], the dissociation constant (Kd) was found to be 464 nM, the off-rate (koff) was determined as 0.00701 s⁻¹ and the kon is 15100 M⁻¹ s⁻¹. In addition, the Kd in assay [5] amounted to 60 nM.

B2: chimeric KFCC-GY4 antibody (CSR01) (antibody, human IgG4, V domains shown)
VH: B1 VH
VL: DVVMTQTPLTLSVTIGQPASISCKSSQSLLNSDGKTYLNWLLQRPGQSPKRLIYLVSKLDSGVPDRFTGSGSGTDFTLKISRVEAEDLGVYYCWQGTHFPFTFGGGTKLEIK
notes: also called Chimeric GY4; chimeric IgG4-GY4
Consider B2, for which the IC50 in assay [2] was 0.8 µg/mL. In addition, in assay [4], the Kd stood at 406 nM, the dissociation rate constant (koff) was 0.00212 s⁻¹ and the kon is 5210 M⁻¹ s⁻¹.

B3: humanized KFCC-GY4 antibody CSR01-VH5/VK2 (antibody, human IgG4, V domains shown)
VH: EVQLVQSGAEVKKPGASVKVSCTASGFNIKDYYIHWVRQAPGQGLEWIGWIDPENGDIEYAPKFQGRATITADTSTDTAYMELSSLRSEDTAVYYCLYQEGSWGQGTTVTVSS
VL: DVVMTQSPLSLPVTLGQPASISCKSSQSLLNSDGKTYLNWLQQRPGQSPRRLIYLVSKLDSGVPDRFTGSGSGTDFTLKISRVEAEDVGVYYCWQGTHFPFTFGGGTKVEIKR
notes: also called VH5/VK2 (GY4 variant); CSR01-VH5NK2
Turning to B3, in assay [3], the IC50 was 1.91 µg/mL and the “IC50 (ratio compared to GY4 mAb)” value worked out at 1.05.

B4: humanized KFCC-GY4 antibody CSR01-VH4/VK2 (antibody, human IgG4, V domains shown)
VH: B3 VH with L83F
VL: B3 VL
notes: also called VH4/VK2 (GY4 variant); CSR01-VH4NK2
Take B4: in assay [3], the IC50 turned out to be 2.53 µg/mL and the “IC50 (ratio compared to GY4 mAb)” value amounted to 1.39.

B5: humanized KFCC-GY4 antibody CSR01-VH5/VK3 (antibody, human IgG4, V domains shown)
VH: B3 VH
VL: B3 VL with T68S
notes: also called VH5/VK3 (GY4 variant); VH5/VK3 IgG4
In the case of B5, in assay [3], the IC50 turned out to be 2.82 µg/mL and the “IC50 (ratio compared to GY4 mAb)” value stood at 1.55.

B6: humanized KFCC-GY4 antibody CSR01-VH5/VK1 (antibody, human IgG4, V domains shown)
VH: B3 VH
VL: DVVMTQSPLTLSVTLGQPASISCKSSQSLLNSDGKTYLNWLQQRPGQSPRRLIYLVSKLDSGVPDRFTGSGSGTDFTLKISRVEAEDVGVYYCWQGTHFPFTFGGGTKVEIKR
notes: also called VH5/VK1 (GY4 variant); CSR01-VH5NK1
Regarding B6, in assay [3], the 50% inhibitory concentration (IC50) stood at 2.18 µg/mL and the “IC50 (ratio compared to GY4 mAb)” value is 1.2.

B7: humanized KFCC-GY4 antibody CSR01-VH4/VK3 (antibody, human IgG4, V domains shown)
VH: B3 VH with L83F
VL: B3 VL with T68S
notes: also called VH4/VK3 (GY4 variant); CSR01-VH4NK3
Regarding B7, in assay [3], the half-maximal inhibitory concentration (IC50) was determined as 2.94 µg/mL and the “IC50 (ratio compared to GY4 mAb)” value was determined as 1.61.

B8: humanized KFCC-GY5 antibody CSR02-VH4/VK2 (antibody, human IgG4, V domains shown)
VH: QVQLVQSGSELKKPGASVKVSCKASGYTFTSNYINWVRQAPGQGLEWIGNIYPSDGFTNYNQKFKDRVTITVDKSTSTAYMELSSLRSEDTAVYYCTRNFDVWGQGTTVTVSS
VL: DVVMTQSPLSLPVTLGQPASISCRSSQSLVHSNGNTYLQWYLQKPGQSPQLLIYTVSNRFSGVPDRFSGSGSGTDFTLKISRVEAEDVGVYFCSQSTHVPFTFGQGTKLEIKR
notes: also called VH4/VK2 (GY5 variant); CSR02-VH4NK2
As for B8, in assay [6], the IC50 was found to be 0.56 µg/mL and the “IC50 (ratio compared to GY5 mAb)” value came out at 1.47.

B9: humanized KFCC-GY5 antibody CSR02-VH5/VK3 (antibody, human IgG4, V domains shown)
VH: B8 VH with I48M
VL: B8 VL with T74P, F92Y
notes: also called VH5/VK3 (GY5 variant); CSR02-VH5NK3
As for B9, in assay [6], the IC50 came out at 0.41 µg/mL and the “IC50 (ratio compared to GY5 mAb)” value is 1.08.

B10: humanized KFCC-GY5 antibody CSR02-VH5/VK2 (antibody, human IgG4, V domains shown)
VH: B8 VH with I48M
VL: B8 VL
notes: also called VH5/VK2 (GY5 variant); CSR02-VH5NK2
Regarding B10, in assay [6], the IC50 came out at 0.6 µg/mL and the “IC50 (ratio compared to GY5 mAb)” value came to 1.58.

B11: humanized KFCC-GY5 antibody CSR02-VH4/VK3 (antibody, human IgG4, V domains shown)
VH: B8 VH
VL: B8 VL with T74P, F92Y
notes: also called VH4/VK3 (GY5 variant); VH4/VK3 IgG4
With B11, in assay [6], the IC50 was 0.43 µg/mL and the “IC50 (ratio compared to GY5 mAb)” value worked out at 1.13.

B12: chimeric KFCC-GY5 antibody (CSR02) (antibody, human IgG4, V domains shown)
VH: QVQLQQPGAELVRPGASVKLSCKASGYTFTSNYINWVKQRPGQGLEWIGNIYPSDGFTNYNQKFKDRATLTVDKSSSTAYMQLSSPTSEDSAVYYCTRNFDVWGAGTTVTVSS
VL: DVVMTQTPLSLPVSLGDQASISCRSSQSLVHSNGNTYLQWYLQKPGQSPKLLIYTVSNRFSGVPDRFSGSGSGPDFTLKISRVEAEDLGVYFCSQSTHVPFTFGSGTKLEIK
notes: also called Chimeric GY5; chimeric IgG4-GY5
With B12, in assay [7], the IC50 was found to be 0.4 µg/mL. For the same molecule, in assay [4], the Kd was 0.978 nM, the koff is 3.01e-05 s⁻¹ and the kon was 30700 M⁻¹ s⁻¹.
